In IntAct's records for PubMed 24929360:

B1: Catenin delta-1 (Mus musculus), P30999 (parent)
chain: MDDSEVESTASILASVKEQEAQFEKLTRALEEERRHVSAQLERVRVSPQDANSLMANGTLTRRHQNGRFVGDADLERQKFSDLKLNGPQDHNHLLYSTIPRMQEPGQIVETYTEEDPEGAMSVVSVETTDDGTTRRTETTVKKVVKTMTTRTVQPVPMGPDGLPVDASAVSNNYIQTLGRDFRKNGNGGPGPYVGQAGTATLPRNFHYPPDGYGRHYEDGYPGGSDNYGSLSRVTRIEERYRPSMEGYRAPSRQDVYGPQPQVRVGGSSVDLHRFHPEPYGLEDDQRSMGYDDLDYGMMSDYGTARRTGTPSDPRRRLRSYEDMIGEEVPPDQYYWAPLAQHERGSLASLDSLRKGMPPPSNWRQPELPEVIAMLGFRLDAVKSNAAAYLQHLCYRNDKVKTDVRKLKGIPILVGLLDHPKKEVHLGACGALKNISFGRDQDNKIAIKNCDGVPALVRLLRKARDMDLTEVITGTLWNLSSHDSIKMEIVDHALHALTDEVIIPHSGWEREPNEDCKPRHIEWESVLTNTAGCLRNVSSERSEARRKLRECDGLVDALIFIVQAEIGQKDSDSKLVENCVCLLRNLSYQVHREIPQAERYQEALPTVANSTGPHAASCFGAKKGKDEWFSRGKKPTEDPANDTVDFPKRTSPARGYELLFQPEVVRIYISLLKESKTPAILEASAGAIQNLCAGRWTYGRYIRSALRQEKALSAIAELLTSEHERVVKAASGALRNLAVDARNKELIGKHAIPNLVKNLPGGQQNSSWNFSEDTVVSILNTINEVIAENLEAAKKLRETQGIEKLVLINKSGNRSEKEVRAAALVLQTIWGYKELRKPLEKEGWKKSDFQVNLNNASRSQSSHSYDDSTLPLIDRNQKSDKKPDREEIPMSNMGSNTKSLDNNYSTLNERGDHNRTLDRSGDLGDMEPLKGAPLMQKI

Variants of: B1
Settings: with cadh2_mouse Cdh2, P15116
Chain of cadh2_mouse Cdh2, P15116 (P15116 whole entry): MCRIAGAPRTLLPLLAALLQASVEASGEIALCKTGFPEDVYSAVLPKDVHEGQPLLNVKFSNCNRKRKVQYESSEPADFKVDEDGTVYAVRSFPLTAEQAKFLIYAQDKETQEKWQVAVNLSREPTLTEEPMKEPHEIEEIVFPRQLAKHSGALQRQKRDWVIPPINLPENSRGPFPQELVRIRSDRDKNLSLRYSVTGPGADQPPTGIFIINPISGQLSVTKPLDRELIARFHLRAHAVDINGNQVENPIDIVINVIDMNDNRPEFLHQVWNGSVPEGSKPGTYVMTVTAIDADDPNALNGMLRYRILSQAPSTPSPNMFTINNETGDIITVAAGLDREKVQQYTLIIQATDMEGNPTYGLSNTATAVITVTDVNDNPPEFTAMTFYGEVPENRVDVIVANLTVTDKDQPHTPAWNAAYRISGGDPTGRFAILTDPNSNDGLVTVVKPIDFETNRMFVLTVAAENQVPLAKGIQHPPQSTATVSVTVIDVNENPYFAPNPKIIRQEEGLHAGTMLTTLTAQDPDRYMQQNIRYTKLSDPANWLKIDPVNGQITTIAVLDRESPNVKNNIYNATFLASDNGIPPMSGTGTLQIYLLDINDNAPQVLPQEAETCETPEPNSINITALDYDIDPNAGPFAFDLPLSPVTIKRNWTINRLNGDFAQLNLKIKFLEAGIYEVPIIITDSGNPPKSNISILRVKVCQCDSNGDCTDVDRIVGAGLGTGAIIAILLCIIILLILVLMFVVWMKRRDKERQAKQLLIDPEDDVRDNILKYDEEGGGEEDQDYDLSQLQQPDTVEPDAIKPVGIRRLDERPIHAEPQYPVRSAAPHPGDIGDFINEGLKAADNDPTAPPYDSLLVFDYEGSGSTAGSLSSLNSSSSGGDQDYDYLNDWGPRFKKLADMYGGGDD
In the case of T310A, the “effect of a mutation on the interaction” value is reported as “increasing interaction strength”.
